Experimental data from patent US20050192211A1 (Merck KGaA, published 2005).

Target: T1, EPO receptor (UniProt P19235 25-508, limits assumed)
T1 sequence (looked up): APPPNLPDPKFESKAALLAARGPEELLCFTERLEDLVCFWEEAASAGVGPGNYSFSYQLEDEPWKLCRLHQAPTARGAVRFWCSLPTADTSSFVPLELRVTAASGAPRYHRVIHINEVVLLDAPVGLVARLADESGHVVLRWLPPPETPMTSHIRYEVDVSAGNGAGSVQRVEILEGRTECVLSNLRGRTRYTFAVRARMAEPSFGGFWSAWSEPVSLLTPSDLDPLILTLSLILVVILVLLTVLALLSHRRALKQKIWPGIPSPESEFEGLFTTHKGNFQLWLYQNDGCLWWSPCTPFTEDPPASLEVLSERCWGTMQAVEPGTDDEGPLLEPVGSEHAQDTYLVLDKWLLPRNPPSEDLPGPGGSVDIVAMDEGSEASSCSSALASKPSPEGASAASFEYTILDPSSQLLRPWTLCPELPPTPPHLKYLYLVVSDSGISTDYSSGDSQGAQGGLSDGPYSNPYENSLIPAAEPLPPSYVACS
Experiment: cell-based or functional assay

For EPO (Aranesp®) (ligand), the ED50, TF-1 cell proliferation (3H-thymidine incorporation); S.D. 0.96; N 10 was 2.4 ng/mL.
